Data as given in PMC2607554, “In-Vitro Helix Opening of M. tuberculosis oriC by DnaA Occurs at Precise Location and Is Inhibited by IciA Like Protein”.

Target: T1, IciA (rIciA, LysR family) (Mycobacterium tuberculosis H37Rv, UniProt P9WMF5 1-303)
T1 sequence: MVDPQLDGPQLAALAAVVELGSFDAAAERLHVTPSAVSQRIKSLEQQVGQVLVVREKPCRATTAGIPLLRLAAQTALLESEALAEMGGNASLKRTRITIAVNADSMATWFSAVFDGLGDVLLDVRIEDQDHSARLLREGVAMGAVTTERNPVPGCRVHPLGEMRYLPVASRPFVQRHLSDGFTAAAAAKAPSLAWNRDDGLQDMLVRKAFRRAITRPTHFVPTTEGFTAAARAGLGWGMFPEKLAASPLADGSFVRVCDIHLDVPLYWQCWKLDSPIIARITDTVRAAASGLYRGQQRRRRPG
Assay: EMSA; 250-750 ng IciA, 1 ug poly(dI/dC)
Conditions: protein: recombinant; tags: His tag (pET28a NdeI/HindIII); chain copies: 4; label: 5' 32P; blunt

B1: A+T rich oriC oligonucleotide (Ori F1/Ori R1) (dsDNA)
DNA 1: TTCTTCCGACAACGTTCTTAAAAAAACTTCTCTA
DNA 2: TAGAGAAGTTTTTTTAAGAACGTTGTCGGAAGAA
- binding result: binds
